The target of this assay is FIP200 N-terminal domain (1-640), untagged, of the ULK1C core (human, UniProt Q8TDY2 1-640). Description: cryo-EM structure; ULK1C (2:1:1) core, SEC peak in 25 mM HEPES pH 7.5, 150 mM NaCl, 1 mM MgCl2, 1 mM TCEP; graphene grids, 300 kV Titan Krios. To be noted: both partners purified.
FIP200 N-terminal domain (1-640), untagged, of the ULK1C core, sequence (Q8TDY2 1-640): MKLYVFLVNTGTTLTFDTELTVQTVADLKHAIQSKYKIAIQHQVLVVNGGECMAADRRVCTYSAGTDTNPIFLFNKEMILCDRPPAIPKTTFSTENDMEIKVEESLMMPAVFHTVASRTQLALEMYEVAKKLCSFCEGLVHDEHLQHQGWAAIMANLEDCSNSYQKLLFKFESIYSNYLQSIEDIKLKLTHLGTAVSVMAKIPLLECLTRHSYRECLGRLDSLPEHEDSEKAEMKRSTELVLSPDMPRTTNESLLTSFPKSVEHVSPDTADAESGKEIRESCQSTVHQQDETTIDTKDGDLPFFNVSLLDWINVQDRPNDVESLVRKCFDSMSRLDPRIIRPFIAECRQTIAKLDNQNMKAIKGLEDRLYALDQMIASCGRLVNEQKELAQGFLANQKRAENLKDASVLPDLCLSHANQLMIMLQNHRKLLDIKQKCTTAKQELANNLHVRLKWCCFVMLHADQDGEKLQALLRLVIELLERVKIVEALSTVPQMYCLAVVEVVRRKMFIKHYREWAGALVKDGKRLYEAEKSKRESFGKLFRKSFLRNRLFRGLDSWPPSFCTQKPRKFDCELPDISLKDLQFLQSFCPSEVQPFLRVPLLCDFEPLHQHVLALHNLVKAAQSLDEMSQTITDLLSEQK

B1: ATG13 (363-517), the ATG13 part of the ATG13-ULK1 fusion chain (domain or fragment, human, UniProt O75143 363-517, looked up)
chain: HDVLETIFVRKVGAFVNKPINQVTLTSLDIPFAMFAPKNLELEDTDPMVNPPDSPETESPLQGSLHSDGSSGGSSGNTHDDFVMIDFKPAFSKDDILPMDLGTFYREFQNPPQLSSLSIDIGAQSMAEDLDSLPEKLAVHEKNVREFDAFVETLQ
In the case of B1, the binding result is “binds”.

The values above are taken from publication PMC12440827 (Nature structural & molecular biology, 2025).
